In article PMC8263569:

Biological target: P622-G772A/S773A (ADGRG2-P622 with G772 and S773 of the ECL2 changed to alanine) (human) (UniProt Q8IZP9)
Sequence of UniProt Q8IZP9 (Q8IZP9 622-1017 G772A/S773A): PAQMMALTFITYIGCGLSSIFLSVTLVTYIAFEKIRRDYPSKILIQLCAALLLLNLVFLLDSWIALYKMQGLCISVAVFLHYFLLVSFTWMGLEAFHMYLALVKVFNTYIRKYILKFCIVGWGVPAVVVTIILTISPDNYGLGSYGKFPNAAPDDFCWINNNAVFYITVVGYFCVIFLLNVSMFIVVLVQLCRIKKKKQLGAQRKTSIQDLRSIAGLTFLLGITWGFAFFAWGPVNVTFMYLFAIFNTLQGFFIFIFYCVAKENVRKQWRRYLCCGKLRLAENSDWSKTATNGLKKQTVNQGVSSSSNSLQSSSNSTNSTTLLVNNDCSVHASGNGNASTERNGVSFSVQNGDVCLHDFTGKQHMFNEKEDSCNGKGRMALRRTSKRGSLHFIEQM

CRE-luciferase reporter response to P-15, reduction against P622-CWI: 30%
SRE-luciferase reporter response to P-15, reduction against P622-CWI: 40%
Substance: synthetic P-15 (15-amino acid long Stachel peptide of ADGRG2)
